{"source": "paper doi:10.1101/2022.09.16.508221", "about": "(bioRxiv, 2022)", "key": {"[1]": {"target": "the molecule itself", "test": "mass photometry"}, "[2]": {"target": "the molecule itself", "test": "SEC"}}, "note": "Several values for one entry are separate records, joined by “and”; a condition that tells them apart may be missing. Equal entries are not always repeated.", "data": [{"protein": "Hermes transposase (full-length, with the mutations Q2E and K128G) (enzyme, Musca domestica, UniProt Q25438 1-612, looked up) MEKMDNLEVKAKINQGLYKITPRHKGTSFIWNVLADIQKEDDTLVEGWVFCRKCEKVLKYTTRQTSNLCRHKCCASLKQSRELKTVSADCKKEAIEKCAQWVVRDCRPFSAVSGSGFIDMIKFFIKVGAEYGEHVNVEELLPSPITLSRKVTSDAKEKKALISREIKSAVEKDGASATIDLWTDNYIKRNFLGVTLHYHENNELRDLILGLKSLDFERSTAENIYKKLKAIFSQFNVEDLSSIKFVTDRGANVVKSLANNIRINCSSHLLSNVLENSFEETPELNMPILACKNIVKYFKKANLQHRLRSSLKSECPTRWNSTYTMLRSILDNWESVIQILSEAGETQRIVHINKSIIQTMVNILDGFERIFKELQTCSSPSLCFVVPSILKVKEICSPDVGDVADIAKLKVNIIKNVRIIWEENLSIWHYTAFFFYPPALHMQQEKVAQIKEFCLSKMEDLELINRMSSFNELSATQLNQSDSNSHNSIDLTSHSKDISTTSFFFPQLTQNNSREPPVCPSDEFEFYRKEIVILSEDFKVMEWWNLNSKKYPKLSKLALSLLSIPASSAASERTFSLAGNIITEKRNRIGQQTVDSLLFLNSFYKNFCKLDI", "values": [{"measurement": "stoichiometry N", "setting": "[1]", "result": 2}, {"measurement": "stoichiometry N", "setting": "[2]", "result": "8 and 6"}]}]}
